According to US12466852B2, “Method for extraction and purification of hirudin mutant and use thereof” (SUNGEN BIOSCIENCE CO., LTD., priority 2019, dated 2025):
“Also recorded” adds a separate entry of the source.

Tests used:
[1] = target: thrombin (Homo sapiens, UniProt P00734); test: anticoagulant activity by biochemical method determination (Chinese Pharmacopoeia 2005 edition, page 84)
Protocol: According to the analysis of anticoagulant activity by biochemical method determination, the anticoagulant activity of the prepared hirudin mutant HV2-Lys47 was calculated to be 17000 ATU/mg. For the specific determination of anticoagulant activity, reference may be made to the left column of page 84 of the Chinese Pharmacopoeia (2005 edition). Moreover, the purity of the hirudin mutant HV2-Lys47 calculated according to the proportion of color bands in gel electrophoresis had reached to 95%.

[2] = test system: blood coagulation; test: effects of the amount of hirudin mutant HV2-Lys47 in the blood collection tube on blood coagulation; conditions: for Coagulation: blood collection volume 2
Protocol: Effects of the amount of the hirudin mutant HV2-Lys47, which was prepared and vacuum-lyophilized in Example 9, on blood coagulation were as shown in Table 2 below:
It can be seen from the above table that anticoagulant effect can be achieved when the amount of the hirudin mutant HV2-Lys47 added in the blood collection tube is 0.005 mg or more.

[3] = effects of drying process on the activity of hirudin mutant HV2-Lys47 in anticoagulant blood collection tubes; type: physicochemical; conditions: for Activity after drying / Activity loss: content 306ATU/tube
Protocol: Effects of drying process on the activity of hirudin mutant HV2-Lys47 in anticoagulant blood collection tubes were studied.
The hirudin prepared in Example 9 was dissolved in sterile pure water with a dissolution concentration of 3.4 g/100 ml pure water. 2 ml blood collection tubes were used, and each of them was sprayed with the solution of the prepared hirudin mutant HV2-Lys47 by needle spray, and then dried.
The common drying process in the art is high temperature drying: drying three times at 45° C., 50° C. and 70° C., three times for each temperature, and 60 seconds each time.
The drying method in the present application is: drying the sprayed blood collection tubes in a vacuum lyophilizer at a temperature of −50° C. and a vacuum degree of […].
The effects of high temperature drying and vacuum lyophilization methods on the activity of hirudin mutant HV2-Lys47 were as shown in Table 1 below.

[4] = drying for 40 min at −50° C. and with a vacuum degree of −4 Mpa
[5] = drying three times at 45° C., 60 seconds each time
[6] = drying three times at 50° C., 60 seconds each time
[7] = drying three times at 70° C., 60 seconds each time

B1: hirudin mutant HV2-Lys47: hirudin mutant of SEQ ID NO.: 1; asparagine at position 47 of natural hirudin substituted by lysine; produced by Escherichia coli fermentation (protein)
chain: ITYTDCTESGQNLCLCEGSNVCGKGNKCILGSNGKGNQCVTGEGTPKPESHNNGDFEEIPEEYLQ
anticoagulant activity ([1]; prepared in Example 1 (tube centrifuge, ethanol precipitation)): 17000 ATU/mg | anticoagulant activity ([1]; prepared in Example 2 (disk centrifuge, 8% salt)): 15800 ATU/mg | anticoagulant activity ([1]; prepared in Example 3 (ceramic membrane)): 16800 ATU/mg | anticoagulant activity ([1]; prepared in Example 4 (hollow fiber membrane)): 16000 ATU/mg | anticoagulant activity ([1]; prepared in Example 5 (methanol precipitation)): 15800 ATU/mg | anticoagulant activity ([1]; prepared in Example 6 (acetone precipitation)): 17000 ATU/mg | anticoagulant activity ([1]; prepared in Example 7 (ammonium sulfate precipitation)): 15000 ATU/mg | anticoagulant activity ([1]; prepared in Example 8 (ceramic membrane, nanofiltration, sodium chloride precipitation)): 14500 ATU/mg | anticoagulant activity ([1]; prepared in Example 9 (isopropanol precipitation)): 18000 ATU/mg | amount added in the blood collection tube at which anticoagulant effect can be achieved ([2]; 2 ml blood collection): ≥ 0.005 mg | Coagulation ([2]; amount 0.001): Quick coagulation | Coagulation ([2]; amount 0.005): No coagulation | Coagulation ([2]; amount 0.008): No coagulation | Coagulation ([2]; amount 0.02): No coagulation | Coagulation ([2]; amount 0.08): No coagulation | Coagulation ([2]; amount 0.16): No coagulation | Coagulation ([2]; amount 0.5): No coagulation | Coagulation ([2]; amount 1): No coagulation | Coagulation ([2]; amount 5): No coagulation | Coagulation ([2]; amount 10): No coagulation | Coagulation ([2]; amount 15): No coagulation | Coagulation ([2]; amount 20): No coagulation | Activity after drying [3, 4]: 304 ATU/tube | Activity loss [3, 4]: 0.65% | Activity after drying [3, 5]: 276 ATU/tube | Activity loss [3, 5]: 9.8% | Activity after drying [3, 6]: 245 ATU/tube | Activity loss [3, 6]: 19.9% | Activity after drying [3, 7]: 160 ATU/tube | Activity loss [3, 7]: 47.7% | loss of hirudin activity ([3]; high-temperature drying process generally used in production of a blood collection tube): about 10% | hirudin activity loss (in words) ([3]; vacuum lyophilization): no hirudin activity loss; also recorded: not lost
